Measurements published in US20250206813A1 (NVH MEDICINAL, published 2025).

T1: PCPE-1 (Procollagen C-proteinase enhancer-1) glycoprotein, human (human, UniProt Q15113 26-449)
T1 construct: mature; Secreted recombinant protein; also called purified human PCPE-1
T1 sequence (looked up): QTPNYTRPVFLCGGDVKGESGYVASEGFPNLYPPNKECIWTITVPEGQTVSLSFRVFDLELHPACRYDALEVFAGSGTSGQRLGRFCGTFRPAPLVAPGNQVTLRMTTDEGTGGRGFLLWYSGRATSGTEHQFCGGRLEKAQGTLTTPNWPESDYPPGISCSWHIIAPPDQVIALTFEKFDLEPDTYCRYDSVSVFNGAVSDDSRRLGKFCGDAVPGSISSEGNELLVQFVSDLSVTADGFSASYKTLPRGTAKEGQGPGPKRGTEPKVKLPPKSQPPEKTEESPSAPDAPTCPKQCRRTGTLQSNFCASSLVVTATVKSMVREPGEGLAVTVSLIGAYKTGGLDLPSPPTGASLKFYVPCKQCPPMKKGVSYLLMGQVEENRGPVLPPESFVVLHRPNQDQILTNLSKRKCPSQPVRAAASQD


What was measured:
[1] = biological target: T1, PCPE-1 (Procollagen C-proteinase …); assay: SPR competition: PCPE-1 (5 nM) co-injected with D1 (0-200 nM) on immobilized Mini III
Experimental: (§1) Surface plasmon resonance (SPR) experiments were carried out on a Biacore T200 (Cytiva). The ligand proteins, in solution in 10 mM HEPES pH 7.4 buffer for PCPE-1 or 10 mM sodium acetate pH 4.5 buffer for mini-procollagen III and streptavidin, are immobilized on CM5 chips by amine coupling. Analytes are diluted in running buffer (10 mM HEPES pH 7.4, 0.15 M NaCl, 5 mM CaCl₂), 0.05% P20) and injected at a flow rate of 30 or 50 μL/min. Competition, epitope binning and kinetics experiments were all carried out at 25° C. Regeneration was achieved by successive injection of 2 M guanidine chloride and 0.5 M EDTA for 30 sec. Sensorgrams were analyzed with Biacore T200 Evaluation v3.2.1 (Cytiva), using the most suitable models. IC50 was determined by non-linear regression using GraphPad Prism (v8.2.1).
Similarly, the addition of diab-D1 completely blocks the stimulation of CPIII-Long cleavage by PCPE-1 (FIG. 4C).

[2] = biological target: T1, PCPE-1 (Procollagen C-proteinase …); assay: SPR, increasing concentrations of D1 (0-250 nM) on immobilized PCPE-1, Langmuir model
Experimental: as §1
(§2) 21, produced in bacteria. The interaction of diab-D1 with PCPE-1 was assessed by SPR, by injecting increasing concentrations of diab-D1 onto immobilized PCPE-1.

[3] = biological target: T1, PCPE-1 (Procollagen C-proteinase …); assay: SPR, D1 (0-250 nM) injected over immobilized PCPE-1, 1:1 binding model (Langmuir)
Experimental: as §1, §2

[4] = biological target: T1, PCPE-1 (Procollagen C-proteinase …); assay: SPR competition: PCPE-1 (5 nM) co-injected with D1 (0-200 nM) over immobilized mini-procollagen III; blocked ligand: Mini III
Experimental: FIG. 4B: Inhibition of PCPE-1/mini-procollagen III interaction in the presence of D1: the interaction of PCPE-1 (5 nM) with immobilized mini-procollagen III is measured and compared with the interaction obtained when PCPE-1 (5 nM) is co-injected with increasing amounts (0-200 nM) of D1. The % residual PCPE-1 uptake is plotted as a function of D1 concentration.
as §1

[5] = biological target: T1, PCPE-1 (Procollagen C-proteinase …); assay: SPR competition: PCPE-1 (5 nM) co-injected with the mix on immobilized Mini III; mix of VHH-I5 and VHH-H4, 5 nM PCPE-1
Experimental: as §1
What is more, their antagonistic effects are additive, and co-injection of a mixture of VHH-I5 and VHH-H4 with PCPE-1 virtually eliminates its interaction with Mini III.

Row | IC50 [1] | Kd [2] | koff [3] | kon [3] | IC50 (read off the curve) [4] | IC50 [5] | Binder
1 | ~3.5 nM | 0.32 nM | 0.000515 s⁻¹ | 1.6e+06 M⁻¹ s⁻¹ | ~3 nM |  | bivalent nanobody VHH-H4-GS8-VHH-I5 (D1) (other, Single polypeptide of two VHHs (H4, linker, I5), biparatopic for PCPE-1 (CUB1 and CUB2); produced in bacteria; also called diab-D1; diabody D1; not shown: C-terminal tag of the pET29b(+) construct (6-His for the synthetic nanobodies)) MAEVQLQASGGGFVQPGGSLRLSCAASGFTSEISNMGWFRQAPGKEREFVSAISGTHTTQTYYADSVKGRFTISRDNSKNTVYLQMNSLRAEDTATYYCAAEQDMSDLWLGSYWGQGTQVTVSSAAAGSGSGSGSGSGSGGSQVQLVESGGGLVQPGGFLRLLCTASGNIFSSNTMGWYRRAPGKQREWVASISKGGSTNYADSVKDRFTISRSITKNTVYLQMVNLKPEDTAVYYCNPVPDSDNYASGQGTQVTVSS
2 |  |  |  |  |  | ~20 nM | mix of VHH-I5 and VHH-H4 (other, Not one molecule: two separate nanobodies added together; the two chains are not linked; also called mixture of VHH-I5 and VHH-H4; VHH-I5 and VHH-H4 co-injected; not shown: C-terminal 6-His tag) VHH 1: MAQVQLVESGGGLVQPGGFLRLLCTASGNIFSSNTMGWYRRAPGKQREWVASISKGGSTNYADSVKDRFTISRSITKNTVYLQMVNLKPEDTAVYYCNPVPDSDNYASGQGTQVTVSS VHH 2: MAEVQLQASGGGFVQPGGSLRLSCAASGFTSEISNMGWFRQAPGKEREFVSAISGTHTTQTYYADSVKGRFTISRDNSKNTVYLQMNSLRAEDTATYYCAAEQDMSDLWLGSYWGQGTQVTVSS
